Molecular target: RAIDD DD (UniProt P78560)
Assay: native gel or EMSA; native-PAGE on a PhastSystem, 8-25% acrylamide gradient gels, Coomassie staining; complexes in 20 mM Tris pH 8.0, 50 mM NaCl; pre-incubated with or without peptide for 1 hour at room temperature; complex band without peptide taken as 100%

Chain of RAIDD DD (P78560 94-199): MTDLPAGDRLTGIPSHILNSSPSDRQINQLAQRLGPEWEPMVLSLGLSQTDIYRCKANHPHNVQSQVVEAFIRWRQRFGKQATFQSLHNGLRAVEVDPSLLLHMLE

percent of RAIDD DD:PIDD DD complex formation blocked at 30 μM peptide: 50%
Substance: TAT-Y814A (previously generated TAT-fused PIDD peptide with the mutation Y814A)
